# Measurements from IntAct's records for PubMed 25910212.
# B1: Lipopolysaccharide-induced tumor necrosis factor-alpha factor (Homo sapiens), Q99732 (parent)
# chain: MSVPGPYQAATGPSSAPSAPPSYEETVAVNSYYPTPPAPMPGPTTGLVTGPDGKGMNPPSYYTQPAPIPNNNPITVQTVYVQHPITFLDRPIQMCCPSCNKMIVSQLSYNAGALTWLSCGSLCLLGCIAGCCFIPFCVDALQDVDHYCPNCRALLGTYKRL
# B2: U4/U6 small nuclear ribonucleoprotein Prp31 (Homo sapiens), Q8WWY3 (parent)
# chain: MSLADELLADLEEAAEEEEGGSYGEEEEEPAIEDVQEETQLDLSGDSVKTIAKLWDSKMFAEIMMKIEEYISKQAKASEVMGPVEAAPEYRVIVDANNLTVEIENELNIIHKFIRDKYSKRFPELESLVPNALDYIRTVKELGNSLDKCKNNENLQQILTNATIMVVSVTASTTQGQQLSEEELERLEEACDMALELNASKHRIYEYVESRMSFIAPNLSIIIGASTAAKIMGVAGGLTNLSKMPACNIMLLGAQRKTLSGFSSTSVLPHTGYIYHSDIVQSLPPDLRRKAARLVAAKCTLAARVDSFHESTEGKVGYELKDEIERKFDKWQEPPPVKQVKPLPAPLDGQRKKRGGRRYRKMKERLGLTEIRKQANRMSFGEIEEDAYQEDLGFSLGHLGKSGSGRVRQTQVNEATKARISKTLQRTLQKQSVVYGGKSTIRDRSSGTASSVAFTPLQGLEIVNPQAAEKKVAEANQKYFSSMAEFLKVKGEKSGLMST
# partner: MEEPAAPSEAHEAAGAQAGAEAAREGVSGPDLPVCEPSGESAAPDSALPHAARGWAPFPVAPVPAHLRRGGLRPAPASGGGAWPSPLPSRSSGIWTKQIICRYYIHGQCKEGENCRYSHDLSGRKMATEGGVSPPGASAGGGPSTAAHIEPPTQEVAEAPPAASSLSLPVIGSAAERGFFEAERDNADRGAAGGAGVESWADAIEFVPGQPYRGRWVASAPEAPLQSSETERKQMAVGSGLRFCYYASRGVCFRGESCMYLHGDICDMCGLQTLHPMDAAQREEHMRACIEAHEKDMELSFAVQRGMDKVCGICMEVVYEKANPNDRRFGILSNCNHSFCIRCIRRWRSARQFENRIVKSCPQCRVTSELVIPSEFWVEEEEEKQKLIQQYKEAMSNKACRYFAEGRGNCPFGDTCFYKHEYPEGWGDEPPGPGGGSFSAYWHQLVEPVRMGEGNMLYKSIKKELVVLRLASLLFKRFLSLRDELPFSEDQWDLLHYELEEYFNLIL
# B3: Adiponectin (Homo sapiens), Q15848 (parent)
# chain: MLLLGAVLLLLALPGHDQETTTQGPGVLLPLPKGACTGWMAGIPGHPGHNGAPGRDGRDGTPGEKGEKGDPGLIGPKGDIGETGVPGAEGPRGFPGIQGRKGEPGEGAYVYRSAFSVGLETYVTIPNMPIRFTKIFYNQQNHYDGSTGKFHCNIPGLYYFAYHITVYMKDVKVSLFKKDKAMLFTYDQYQENNVDQASGSVLLHLEVGDQVWLQVYGEGERNGLYADNDNDSTFTGFLLYHDTN
# partner: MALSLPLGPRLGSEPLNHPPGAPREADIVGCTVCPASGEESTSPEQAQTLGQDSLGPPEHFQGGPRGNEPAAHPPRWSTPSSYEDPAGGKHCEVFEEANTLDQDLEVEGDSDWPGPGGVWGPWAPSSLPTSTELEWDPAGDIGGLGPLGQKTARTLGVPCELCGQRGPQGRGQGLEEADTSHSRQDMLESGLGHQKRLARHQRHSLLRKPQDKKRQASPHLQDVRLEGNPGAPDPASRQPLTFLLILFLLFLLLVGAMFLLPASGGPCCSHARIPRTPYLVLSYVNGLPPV
# B4: ATP synthase mitochondrial F1 complex assembly factor 2 (Homo sapiens), Q8N5M1 (parent)
# chain: MWRSCLRLRDGGRRLLNRPAGGPSASMSPGPTIPSPARAYAPPTERKRFYQNVSITQGEGGFEINLDHRKLKTPQAKLFTVPSEALAIAVATEWDSQQDTIKYYTMHLTTLCNTSLDNPTQRNKDQLIRAAVKFLDTDTICYRVEEPETLVELQRNEWDPIIEWAEKRYGVEISSSTSIMGPSIPAKTREVLVSHLASYNTWALQGIEFVAAQLKSMVLTLGLIDLRLTVEQAVLLSRLEEEYQIQKWGNIEWAHDYELQELRARTAAGTLFIHLCSESTTVKHKLLKE
# partner: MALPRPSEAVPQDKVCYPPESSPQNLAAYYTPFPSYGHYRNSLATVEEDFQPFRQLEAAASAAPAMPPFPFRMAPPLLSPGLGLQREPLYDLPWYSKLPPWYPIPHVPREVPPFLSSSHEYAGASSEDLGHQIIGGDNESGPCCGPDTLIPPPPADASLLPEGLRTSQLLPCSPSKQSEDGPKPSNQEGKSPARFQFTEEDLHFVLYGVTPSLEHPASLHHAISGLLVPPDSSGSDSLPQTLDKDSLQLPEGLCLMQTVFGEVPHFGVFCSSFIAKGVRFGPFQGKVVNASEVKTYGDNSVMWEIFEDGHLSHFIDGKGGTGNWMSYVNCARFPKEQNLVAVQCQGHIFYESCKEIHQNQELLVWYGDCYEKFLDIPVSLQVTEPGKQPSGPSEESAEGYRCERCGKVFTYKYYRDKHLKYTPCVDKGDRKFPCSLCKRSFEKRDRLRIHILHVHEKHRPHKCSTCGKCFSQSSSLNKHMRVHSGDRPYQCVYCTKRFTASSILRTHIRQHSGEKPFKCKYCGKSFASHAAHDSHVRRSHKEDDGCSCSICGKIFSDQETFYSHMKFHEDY
# B5: U4/U6 small nuclear ribonucleoprotein Prp31 (Homo sapiens), Q8WWY3 (parent)
# chain: B2 chain
# partner: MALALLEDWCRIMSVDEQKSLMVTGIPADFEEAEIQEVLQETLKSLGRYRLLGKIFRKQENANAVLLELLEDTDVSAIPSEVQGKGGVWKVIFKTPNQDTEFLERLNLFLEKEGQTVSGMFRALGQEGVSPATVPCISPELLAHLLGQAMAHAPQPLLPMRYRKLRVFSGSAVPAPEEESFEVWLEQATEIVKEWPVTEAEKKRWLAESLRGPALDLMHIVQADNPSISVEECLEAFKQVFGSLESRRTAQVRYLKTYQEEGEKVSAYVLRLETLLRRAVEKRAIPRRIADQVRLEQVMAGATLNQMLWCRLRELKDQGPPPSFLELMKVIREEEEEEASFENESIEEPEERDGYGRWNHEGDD
# B6: E3 ubiquitin-protein ligase Midline-1 (Homo sapiens), O15344 (parent)
# chain: METLESELTCPICLELFEDPLLLPCAHSLCFNCAHRILVSHCATNESVESITAFQCPTCRHVITLSQRGLDGLKRNVTLQNIIDRFQKASVSGPNSPSETRRERAFDANTMTSAEKVLCQFCDQDPAQDAVKTCVTCEVSYCDECLKATHPNKKPFTGHRLIEPIPDSHIRGLMCLEHEDEKVNMYCVTDDQLICALCKLVGRHRDHQVAALSERYDKLKQNLESNLTNLIKRNTELETLLAKLIQTCQHVEVNASRQEAKLTEECDLLIEIIQQRRQIIGTKIKEGKVMRLRKLAQQIANCKQCIERSASLISQAEHSLKENDHARFLQTAKNITERVSMATASSQVLIPEINLNDTFDTFALDFSREKKLLECLDYLTAPNPPTIREELCTASYDTITVHWTSDDEFSVVSYELQYTIFTGQANVVSLCNSADSWMIVPNIKQNHYTVHGLQSGTKYIFMVKAINQAGSRSSEPGKLKTNSQPFKLDPKSAHRKLKVSHDNLTVERDESSSKKSHTPERFTSQGSYGVAGNVFIDSGRHYWEVVISGSTWYAIGLAYKSAPKHEWIGKNSASWALCRCNNNWVVRHNSKEIPIEPAPHLRRVGILLDYDNGSIAFYDALNSIHLYTFDVAFAQPVCPTFTVWNKCLTIITGLPIPDHLDCTEQLP
# B7: Alpha-crystallin B chain (Homo sapiens), P02511 (parent)
# chain: MDIAIHHPWIRRPFFPFHSPSRLFDQFFGEHLLESDLFPTSTSLSPFYLRPPSFLRAPSWFDTGLSEMRLEKDRFSVNLDVKHFSPEELKVKVLGDVIEVHGKHEERQDEHGFISREFHRKYRIPADVDPLTITSSLSSDGVLTVNGPRKQVSGPERTIPITREEKPAVTAAPKK
# partner: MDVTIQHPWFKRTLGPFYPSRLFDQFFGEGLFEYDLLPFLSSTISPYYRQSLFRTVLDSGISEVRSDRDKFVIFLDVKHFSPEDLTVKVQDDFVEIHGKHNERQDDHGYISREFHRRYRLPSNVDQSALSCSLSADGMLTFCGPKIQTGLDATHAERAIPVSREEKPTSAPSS
# B8: Beta-crystallin B1 (Homo sapiens), P53674 (parent)
# chain: MSQAAKASASATVAVNPGPDTKGKGAPPAGTSPSPGTTLAPTTVPITSAKAAELPPGNYRLVVFELENFQGRRAEFSGECSNLADRGFDRVRSIIVSAGPWVAFEQSNFRGEMFILEKGEYPRWNTWSSSYRSDRLMSFRPIKMDAQEHKISLFEGANFKGNTIEIQGDDAPSLWVYGFSDRVGSVKVSSGTWVGYQYPGYRGYQYLLEPGDFRHWNEWGAFQPQMQSLRRLRDKQWHLEGSFPVLATEPPK
# partner: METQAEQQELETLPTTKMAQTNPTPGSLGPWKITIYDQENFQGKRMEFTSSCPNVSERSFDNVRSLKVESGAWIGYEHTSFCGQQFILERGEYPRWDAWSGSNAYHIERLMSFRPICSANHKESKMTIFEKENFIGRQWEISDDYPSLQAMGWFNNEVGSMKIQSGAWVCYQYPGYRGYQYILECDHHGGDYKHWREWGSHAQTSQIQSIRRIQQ
# B9: Retinoic acid receptor RXR-gamma (Homo sapiens), P48443 (parent)
# chain: MYGNYSHFMKFPAGYGGSPGHTGSTSMSPSAALSTGKPMDSHPSYTDTPVSAPRTLSAVGTPLNALGSPYRVITSAMGPPSGALAAPPGINLVAPPSSQLNVVNSVSSSEDIKPLPGLPGIGNMNYPSTSPGSLVKHICAICGDRSSGKHYGVYSCEGCKGFFKRTIRKDLIYTCRDNKDCLIDKRQRNRCQYCRYQKCLVMGMKREAVQEERQRSRERAESEAECATSGHEDMPVERILEAELAVEPKTESYGDMNMENSTNDPVTNICHAADKQLFTLVEWAKRIPHFSDLTLEDQVILLRAGWNELLIASFSHRSVSVQDGILLATGLHVHRSSAHSAGVGSIFDRVLTELVSKMKDMQMDKSELGCLRAIVLFNPDAKGLSNPSEVETLREKVYATLEAYTKQKYPEQPGRFAKLLLRLPALRSIGLKCLEHLFFFKLIGDTPIDTFLMEMLETPLQIT
# partner: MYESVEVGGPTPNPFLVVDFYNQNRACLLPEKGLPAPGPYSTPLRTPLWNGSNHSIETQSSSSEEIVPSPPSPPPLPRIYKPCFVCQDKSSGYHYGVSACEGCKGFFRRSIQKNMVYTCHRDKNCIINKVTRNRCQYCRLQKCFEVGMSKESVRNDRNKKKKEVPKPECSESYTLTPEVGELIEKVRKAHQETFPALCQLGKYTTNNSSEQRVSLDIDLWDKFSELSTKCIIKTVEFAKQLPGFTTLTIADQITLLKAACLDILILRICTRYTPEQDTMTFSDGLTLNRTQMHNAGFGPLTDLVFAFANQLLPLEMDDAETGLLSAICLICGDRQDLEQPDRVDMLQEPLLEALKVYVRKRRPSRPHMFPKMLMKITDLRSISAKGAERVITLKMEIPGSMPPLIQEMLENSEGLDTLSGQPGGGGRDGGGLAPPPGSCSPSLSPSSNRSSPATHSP
# B10: U4/U6 small nuclear ribonucleoprotein Prp31 (Homo sapiens), Q8WWY3 (parent)
# chain: B2 chain
# partner: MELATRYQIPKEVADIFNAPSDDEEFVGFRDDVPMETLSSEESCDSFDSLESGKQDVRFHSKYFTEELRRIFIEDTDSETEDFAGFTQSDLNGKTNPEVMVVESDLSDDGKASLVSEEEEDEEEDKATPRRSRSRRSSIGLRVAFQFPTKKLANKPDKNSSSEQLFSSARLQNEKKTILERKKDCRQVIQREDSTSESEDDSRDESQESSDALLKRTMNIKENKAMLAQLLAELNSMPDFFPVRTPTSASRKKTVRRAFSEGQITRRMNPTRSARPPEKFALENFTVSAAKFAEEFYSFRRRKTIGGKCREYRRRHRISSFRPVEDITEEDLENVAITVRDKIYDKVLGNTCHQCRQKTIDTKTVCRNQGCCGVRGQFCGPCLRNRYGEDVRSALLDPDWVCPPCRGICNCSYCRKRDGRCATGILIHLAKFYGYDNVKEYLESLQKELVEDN
# Variants of: B1
# Details: with UBQLN1, Q9UMX0-2
# Chain of UBQLN1, Q9UMX0-2 (Q9UMX0 other isoform, or with tags, fused parts or gaps): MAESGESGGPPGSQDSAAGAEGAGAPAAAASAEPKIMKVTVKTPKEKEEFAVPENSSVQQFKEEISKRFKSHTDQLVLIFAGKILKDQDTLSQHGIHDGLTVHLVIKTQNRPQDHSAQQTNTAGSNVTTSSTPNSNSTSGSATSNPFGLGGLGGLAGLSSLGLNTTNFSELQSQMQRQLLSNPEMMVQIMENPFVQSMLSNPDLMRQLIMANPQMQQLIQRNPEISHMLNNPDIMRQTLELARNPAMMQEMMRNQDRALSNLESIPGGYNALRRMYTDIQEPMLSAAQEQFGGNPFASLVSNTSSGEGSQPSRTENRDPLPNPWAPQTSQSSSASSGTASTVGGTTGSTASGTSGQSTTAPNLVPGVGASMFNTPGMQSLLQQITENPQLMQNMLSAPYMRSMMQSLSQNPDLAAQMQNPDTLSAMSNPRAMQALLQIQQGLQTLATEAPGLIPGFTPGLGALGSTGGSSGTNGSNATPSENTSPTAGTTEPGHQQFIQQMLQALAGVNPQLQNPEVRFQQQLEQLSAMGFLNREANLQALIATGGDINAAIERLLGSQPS
row,Variant,effect of a mutation on the interaction
1,G112S,disrupting interaction strength

# Variants of: B1
# Details: with stam2_human STAM2, O75886
row,Variant,effect of a mutation on the interaction
1,G112S,disrupting interaction strength

# Variants of: B1
# Details: with reep6_human REEP6, Q96HR9
# Chain of reep6_human REEP6, Q96HR9 (Q96HR9 whole entry): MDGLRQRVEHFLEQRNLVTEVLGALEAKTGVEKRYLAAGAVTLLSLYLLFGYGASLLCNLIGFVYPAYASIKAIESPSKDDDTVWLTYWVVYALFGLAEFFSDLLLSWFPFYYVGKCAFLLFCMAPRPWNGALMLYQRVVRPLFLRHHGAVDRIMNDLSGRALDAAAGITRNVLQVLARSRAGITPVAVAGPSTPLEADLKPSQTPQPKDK
row,Variant,effect of a mutation on the interaction
1,G112S,disrupting interaction strength

# Variants of: B1
# Details: with hgs_human HGS
row,Variant,effect of a mutation on the interaction
1,G112S,disrupting interaction strength

# Variants of: B1
# Details: with OPTN
row,Variant,effect of a mutation on the interaction
1,G112S,disrupting interaction strength

# Variants of: B2
# Details: with mkrn3_human MKRN3, Q13064
row,Variant,effect of a mutation on the interaction
1,L107V,with no effect

# Variants of: B3
# Details: with SYNE4, Q8N205-2
row,Variant,effect of a mutation on the interaction
1,Y111H,with no effect
2,I164T,with no effect

# Variants of: B4
# Details: with prd14_human PRDM14, Q9GZV8
row,Variant,effect of a mutation on the interaction
1,W94R,disrupting interaction strength

# Variants of: B5
# Details: with pnma2_human PNMA2, Q9UL42
row,Variant,effect of a mutation on the interaction
1,L107V,with no effect

# Variants of: B6
# Details: with meox1_human MEOX1, P50221
# Chain of meox1_human MEOX1, P50221 (P50221 whole entry): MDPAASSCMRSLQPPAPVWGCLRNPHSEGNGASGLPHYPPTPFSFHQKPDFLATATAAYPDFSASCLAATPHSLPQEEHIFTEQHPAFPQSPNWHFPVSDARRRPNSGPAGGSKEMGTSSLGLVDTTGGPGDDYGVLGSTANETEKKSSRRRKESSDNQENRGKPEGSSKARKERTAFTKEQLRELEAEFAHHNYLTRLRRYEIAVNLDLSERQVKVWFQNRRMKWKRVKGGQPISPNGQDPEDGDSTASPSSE
row,Variant,effect of a mutation on the interaction
1,L626P,with no effect
2,C266R,with no effect
3,K370E,with no effect
4,P151L,with no effect

# Variants of: B7
# Details: with cryaa_human CRYAA
row,Variant,effect of a mutation on the interaction
1,P20S,with no effect
2,D140N,with no effect
3,R56W,with no effect
4,R120G,with no effect

# Variants of: B8
# Details: with crba1_human CRYBA1, P05813
row,Variant,effect of a mutation on the interaction
1,S228P,disrupting interaction strength

# Variants of: B9
# Details: with RARA
row,Variant,effect of a mutation on the interaction
1,G14S,with no effect

# Variants of: B10
# Details: with CDCA7L
row,Variant,effect of a mutation on the interaction
1,L107V,with no effect
